Source: patent US20240058466A1 (TAE LIFE SCIENCES, published 2024)

B1: Anti-EGFR Mab No. 3, L234A, L235A, L328C (antibody, human IgG1, L234A L235A)
heavy: QVQLQQSGAEVKKPGSSVKVSCKASGYTFTNYYIYWVRQAPGQGLEWIGGINPTSGGSNFNEKFKTRVTITADESSTTAYMELSSLRSEDTAFYFCTRQGLWFDSDGRGFDFWGQGTTVTVSSASTKGPSVFPLAPSSKSTSGGTAALGCLVKDYFPEPVTVSWNSGALTSGVHTFPAVLQSSGLYSLSSVVTVPSSSLGTQTYICNVNHKPSNTKVDKRVEPKSCDKTHTCPPCPAPEAAGGPSVFLFPPKPKDTLMISRTPEVTCVVVDVSHEDPEVKFNWYVDGVEVHNAKTKPREEQYNSTYRVVSVLTVLHQDWLNGKEYKCKVSNKACPAPIEKTISKAKGQPREPQVYTLPPSREEMTKNQVSLTCLVKGFYPSDIAVEWESNGQPENNYKTTPPVLDSDGSFFLYSKLTVDKSRWQQGNVFSCSVMHEALHNHYTQKSLSLSPGK
light: DIQMTQSPSSLSASVGDRVTITCRSSQNIVHSNGNTYLDWYQQTPGKAPKLLIYKVSNRFSGVPSRFSGSGSGTDFTFTISSLQPEDIATYYCFQYSHVPWTFGQGTKLQITREVAAPSVFIFPPSDEQLKSGTASVVCLLNNFYPREAKVQWKVDNALQSGNSQESVTEQDSKDSTYSLSSTLTLSKADYEKHKVYACEVTHQGLSSPVTKSFNRGEC
notes: Fc variant; also called Anti-EGFR Ab No. 3 L234A, L235A, L328C; triple mutant
B2: Anti-EGFR Mab No. 3, L328C (antibody, human IgG1)
heavy: not shown
light: B1 light
notes: Fc variant; also called Anti-EGFR Ab No. 3 L328C; single mutant

Biological target: T1, recombinant human FcRn (Sino Biological) (human, UniProt P55899 24-297; P61769 21-119)
T1 construct: the two chains are those of natural FcRn
T1 sequence (P55899 24-297 limits assumed, chain 1 of 2): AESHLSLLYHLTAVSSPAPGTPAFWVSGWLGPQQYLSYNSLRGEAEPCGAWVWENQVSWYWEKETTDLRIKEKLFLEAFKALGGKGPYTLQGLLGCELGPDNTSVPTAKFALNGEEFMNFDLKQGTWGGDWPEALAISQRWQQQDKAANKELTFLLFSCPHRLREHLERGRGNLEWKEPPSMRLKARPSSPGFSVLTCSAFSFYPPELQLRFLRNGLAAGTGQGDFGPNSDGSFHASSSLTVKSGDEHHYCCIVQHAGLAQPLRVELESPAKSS
T1 sequence (P61769 21-119 limits assumed, chain 2 of 2): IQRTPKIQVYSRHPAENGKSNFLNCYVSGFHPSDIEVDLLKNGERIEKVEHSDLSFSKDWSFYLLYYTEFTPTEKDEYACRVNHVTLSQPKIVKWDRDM
Test: ELISA at pH 6.0: plate coated with recombinant human FcRn, antibody titrated, goat anti-human Fc-HRP, OD650

Binder	binding result
B1	binds
B2	binds
